{"source": "the DeepSol protein solubility set"}
{"assay": "soluble on expression in E. coli; label from the status in PepcDB or PDB records"}
{"sequence": "MSLPNNEKITRLQQQEKNTQQTVTVAKNKAANLAKFQKEVEATTLDFETQAALLPKEKEIPKLLKDISALGSNTGLDFISFKPLANRPKDFYAEIPISIQVRGPYHNVGSFFDQINKLERIVSVKSVKMTSPKKEDGEMLLTSNCQLVTYQFTNIELPKEGHHHHHH", "soluble on expression in E. coli": "soluble"}
{"sequence": "MSLPSAQAPSLLNPTDDFAALGNIAWLWMNSPMHRDWPVHLLARNTLAPIQLGQYILLRCNDVPVAYCSWALMDADTELSYVMAPSSLGGNAWNCGDRLWIIDWIAPFSRDDNRALRRALAERHPDSVGRSLRVRRGGDTARVKEYRGRALDAAAARAQLDRYHAELIAGLRASNGGYAPREGHHHHHH", "soluble on expression in E. coli": "not soluble"}
{"sequence": "MSLPWLHRETARSFGGAGSTAGYEQVTAYTLTGQLQSRHLNLPQLDCDYDWNDNGQLIRISGPQESREYRYSDTGRLTGVHTTAANLDIDIPYATDPAGNRLPDPELHPDSTLTAWPDNRIAEDAHYVYRYDEYGRLTEKTDRIPEGVIRMHDERTHHYHYDNQHRLVFYTRIQYGEPLVESRYLYDPLGRRTGKRVWRRERDLTGWMSLSRKPEVTWYGWDGDRLTTVQTGTTRIQTVYRPGSFTPLIRIETENGEREKAQRRSLAEKLQQEGSEDGHGVVFPAELVRMLDRLEEEIRADRVSSESRAWLAQCGLTVEQLEKQVEPEYTPARTLHLYHCDHRGLPLALISEDGNTAWSAEYDEWGNQLNEENPHHLHQPYRLPGQQHDEESGLYYNRHRYYDPLQGRYITPDPIGLRGGWNMYQYPLNPIQVIDPMGLDAIENMTSGGLIYAVSGVPGLIVANSITNSAYQFGYDMDAIVGGAHNGAADAMRYCYLMCRMTKTEGHHHHHH", "soluble on expression in E. coli": "soluble"}
{"sequence": "MSLQAAKEVCLWPLHEREPDTTWSRGPLVLLGDAGHPMRPHMAQGAAMAIEDAAVLVRCLRAYGAAAGAAYDHYQQTRAERVAQVQKVSSENSWMRTPTDPEWVFSYDALLAPEGHHHHHH", "soluble on expression in E. coli": "not soluble"}
{"sequence": "MSLQEDPVVMRINGKDIPRSEFEYSYRRHADGNGMKLSPKEYAEFFIQSKLKVEAARAAGLDTTSAFRKQQEAYRTNLLRSYLLDDQEMDGNARILYQKMKENVRGGQVQIQQIYKYLPQTITSRHLQEEQARMDSIYQVIQNQPGVDFARLVDRFSDDKRCRWIESLQTTSEFEEAAFSLAKGEISKPFFTPEGIHILKVIDRKEVPAYEVVSDSLLNRLRRQPLDKGTEAIVEQLKKEYQYIPNMESLEEVLQKGGTERTLFTIDGQAYTGEMFKRFAASHPQAVKRQLNGFIAKSLLDYESQHMERKHPELRYTLQEYAEKCLAEEIVHQKVDLPAVNDRVGLATYFKFHSSDYRWEHPRYKGVVLHCADKKTAKQAKKLLKKVPENEWEDMLRKTFNTSGAEIIKIEQGVFADGDNKYIDKLVFKKGAFDPVVSYPFTIAVGKKQKGPEDYREVIDQVRKDYRNYLNAYWERELRESGKVEINQEVLKTVNNEGHHHHHH", "soluble on expression in E. coli": "soluble"}
{"sequence": "MSLQESSFVHLHNHTQFSVLQSTMAVPDLVAAAAKHNMPAVAITDHANMMGAFHFVNAVKKHNSAIANDSENTSQPIKPIIGCEFFVCEDHTDRTHKDNGYQMVILAKNKKGYHNLAKMSSMGFTKGFYYIPRIDKKLIETYKDDLIVLSGSLYGEIASKLLNLGENQAEESLVWWKETFGDDFYVEIMRHQQEDEERANEALIRLANKHDINLVATNNTYYADQKDANAHDILLCVKEGEKQATPIGRGRGYRYGLPNDQYYFKSAEEMKSLFKDLPQAISNTEAIANKVEAFELAREVLLPAFVIPEQFLDEADKTDAGKRGENAYLKHLTFEGAKRRYGELSEEIKDRLDFELSVIANTGYPGYFLIVEDFIREARKMGVSVGPGRGSAAGSAVAYCLKITNIDPIKYDLLFERFLNPERVSMPDIDIDFDDEGRSKVMDYVIEKYGQNQVAQIITYGTMAAKSAIRDTARVLDLPLYEADRIAKLIPDMSKLGKIFSMNEKEEGHHHHHH", "soluble on expression in E. coli": "soluble"}
{"sequence": "MSLQNAKLMLTCLAFAGLAALAGCSFPGVYKIDIQQGNVVTQDMIDQLRPGMTRRQVRFIMGNPLIVDTFHANRWDYLYSIQPGGGRRQQERVSLFFNDSDQLAGLNGDFMPGVSRDEAILGKEGSTTVTQPADQQKPEAQKEEPPKPGSTLEQLQREVDEAQPVPVPTPEPLDPSPQEGHHHHHH", "soluble on expression in E. coli": "soluble"}
{"sequence": "MSLQSKEDFIEMRVPASAEYVSLIRLTLSGVFSRAGATYDDIEDAKIAVSEAVTNAVKHAYKENNNVGIINIYFEILEDKIKVVISDKGDSFDYETTKSKIGPYDKDENIDFLREGGLGLFLIESLMDEVTVYKESGVTISMTKYIKKEQVRNNGERVEISEGHHHHHH", "soluble on expression in E. coli": "soluble"}
{"sequence": "MSLRASDDKALQYAIAEITEIATGFGLDFYPMRYEICPAEIIYTFGAYGMPTRFSHWSFGKQFFRMKLQYDLGLSKIYELVINSDPCYAFLLDTNSLIQNKLIVAHVLAHCDFFKNNIRFSNTKRDMVESMSATAERVKAYEHKYGKEEVETFLDAVLAIQEHIDPSLMRPKLAWSIDDLEEEEVEKKKASQYDDLWNLDNRNKKQERSNVRKKKKIPPQPEKDLLLFIEEYSRELEDWQRDILTMMREEMLYFWPQLETKIMNEGWASFWHQRILREMDLTSDEAIEFAKLNAGVVQPSKTSINPYYLGIKMFEDIEERYNNPTEEMKRRGVKPGSGRDKIFEVREIEWDVSFLRNYLNKDLVMREDMYLFQRQGKEYKVIDKEWEHVRDQLVNMRTNGGFPYLVVEDGDYLKNGELYIKHSYEGIELDLKYLEKVLPYLHQLWGRTVHMESIVESKGVVFSYDGKMVHRKYVEGHHHHHH", "soluble on expression in E. coli": "not soluble"}
{"sequence": "MSLREAVLANLKKITDPVSGQDIVSAGIVRALNVEGDTVRFVIEIDPKLAERMEPVRAAAEKAAQMVEGVAKVSAMMTAHSDKAPPELKPRAKAAPQGPQPVAGVDRIVAVASGKGGVGKSTVSANLACALAAEGRRVGLLDADVYGPSQPRMLGVSGRPASPDGKTILPLRNHGVTMMSMGLMTNEGQAVVWRGPMLMGALQQMMNQVQWGGLDVLIVDLPPGTGDVQLTLSQKFAVDGAIIVSTPQDVALIDARKGIDMFRQLKTPILGMIENMSTHICSNCGHEEHVFGHGGVAAEAEKLGVPLLGEIPLHLDIRVAADGGAPIVVSKPDSPQAEAFRRIARDLIAKGQALEHHHHHH", "soluble on expression in E. coli": "soluble"}
{"sequence": "MSLRERPVIDELSKVKKLKLTGQTEALFESWRSSWDEIETRLFPDLEEVLLEAEMNTDRYKFRSATHAENDIEQMLVVIEKQMDQILGGLKELLISEEKNAKESRATKEKFAELRREVLTRGFKLGETLPYIETKLSELSESLNSYDSLTDQGDHLEAREIVIVVQKEMQVIEAQMERIPSLLHETDTILPEEMTKLRAGYEEMVRKGYYLAQMELDKEISRMKNQIDKMKKNVINLDLDEAEQGVEELHNEIDLFYDTLEHEAEARHFVKENHSPTSDKLQRQNAVSDALAEQITEVKQTYHVAEDDLAVYLKTSAKLSEAKENFEQLTALIASGEIAYSAAQDTLKEIDAALITISAEQDKFAEELRSLRKDELEARDDAERMRRAIITLDRKMERERLPGLPEEYLSLREHMGESINALEKRLEEKPLNMKAVSQDWRIAEEDLTHLTEKAEEMMENVRLVEHVIQYANRYRLRNKELADELVQAENHFYNDYQYKKALEIAVTALEKVETGAFKKVEKAYESKVSVDEGHHHHHH", "soluble on expression in E. coli": "not soluble"}
{"sequence": "MSLRESVLKIYNWADYIDEDMLAEFPRWYKEQTGEDIRIVYQTFDINEIMLTKIERGHEDFDVVCPSEYIIERMLRKGLLLPIDTVFGKTPNYLHNESPYIREQLDKLSWSGHRASDYAIGYMWGTAGILFNTDHVPAEDARTWASLWNLKYENKILMKESYRDAYGTALIYANAEDLKKGKVTVEELMNNYSQASIDTVEKYLKAMKPLIAGWEADFGKEMMTKGKAWLNMTWSGDAVWAIEEAEGVGIHLDYEVPVEGSNVWYDGWVIPKYARNKKAASYFINYLCRPDVALRNMDACGYVSAVATPEILEAKIDTTLSYFADLSYFFGPAADSIQIDKVQYPDRTVVERCAMIRDSGDKTELVLEMWSRVKGDNEGHHHHHH", "soluble on expression in E. coli": "soluble"}
{"sequence": "MSLRFALTPGEPAGIGPDLCLLLARSAQPHPLIAIASRTLLQERAGQLGLAIDLKDVSPAAWPERPAKAGQLYVWDTPLAAPVRPGQLDRANAAYVLETLTRAGQGCLDGHFAGMITAPVHKGVINEAGIPFSGHTEFLADLTHTAQVVMMLATRGLRVALATTHLPLREVADAISDERLTRVARILHADLRDKFGIAHPRILVCGLNPHAGEGGHLGREEIEVIEPCLERLRGEGLDLIGPLPADTLFTPKHLEHCDAVLAMYHDQGLPVLKYKGFGAAVNVTLGLPIIRTSVDHGTALDLAGSGRIDSGSLQVALETAYQMAASRC", "soluble on expression in E. coli": "soluble"}
{"sequence": "MSLRFGNRKLRQQQALQYELEKNKAELEEYREELVSHFARSAELLDTMAHDYRQLYQHMAKSSSSLLPEMSAESNPFRNRLAESEASNDQAPVQMPRDYSEGASGLLRSGAKRDEGHHHHHH", "soluble on expression in E. coli": "not soluble"}
{"sequence": "MSLRHMQIETVNLPLARPMAAENGTRHAVTVIRVALEEKGFIGQGECTPAAHYGESADSVCRQLSAIREAIENGLTIEQLQQNLSPGAARNALDCALWRLNTALEKQTLWQRVGIHPPTSVVCAQTLALDSVEKMATAASNAVSHGALLLKIKLDRELILEKVAAIRAAAPNARLIIDARASWSGLDLHSLSTALLPYQVAMIEQPLPVGKDEDLQRFAHPIPICADESCRHSGDIVGLRRRYDMINIKLDKCGGLTEALAMVREAHFHGLRIMVGCTLGSSMAMEAALPVAADAEHVDLDGPIWLAADSSPYLTYNLGRIWLEGHHHHHH", "soluble on expression in E. coli": "soluble"}
{"sequence": "MSLRIKDIARLANVSVGTVDRVLHGRSGVSEASRKRVEEILKQLDYQPNMYASALASNKKYTFACLLPKHLEGEYWTDVQKGIREAVTTYSDFNISANITHYDPYDYNSFVATSQAVIEEQPDGVMFAPTVPQYTKGFTDALNELGIPYIYIDSQIKDAPPLAFFGQNSHQSGYFAARMLMLLAVNDREIVIFRKIHEGVIGSNQQESREIGFRQYMQEHHPACNILELNLHADLNIEDSRMLDDFFREHPDVKHGITFNSKVYIIGEYLQQRRKSDFSLIGYDLLERNVTCLKEGTVSFLIAQQPELQGFNSIKTLCDHLIFRKEVACTNYMPIDLLTKENIDYYHSEGHHHHHH", "soluble on expression in E. coli": "soluble"}
{"sequence": "MSLRKASVFIVELKFEQESCPLGVVIPLEESKNKLASVKPLVDLTRADMEQVNQLILSRAGSDVQMIPEVANHLISSGGKRLRPMLTLASASMFGYEGDHHIKLATSVEFMHTATLLHDDVVDESDLRRGKSTARTIWGNQASVLVGDFLLGQAFRMMVDVGSLDALDVLSTAASVIAEGEVLQLSVAKNMETTEDDYLQVIRAKTAALFAAAAEVGPIVAKTDKASRSALKSYGMNLGLAFQLVDDVLDYGGKSADLGKNTGDDFREGKITLPVILSYRRGTQDERAFWRNAIENGESSDENLEKALGLITKYNGLGDTIGRATHYGTIARDALAPLPESPWKNALLEVIDFCIERLNEGHHHHHH", "soluble on expression in E. coli": "soluble"}
{"sequence": "MSLRKNPYRLSDEIFGISFRTADRIAKSLGIDPYSKYRISSGIKYVLSRAATEGHTFLEEEMLKSYTSKLLDINIDSIEDALVSLVLNKSVYVDRNDGMSKIYLSSFYHAELGVCRKLVELSQVRYSADMEDFEERIKQVQKKEGIILADKQKEAIREAMTNGVLVITGGPGTGKTTIIKSIISLLESEGYEFALAAPTGRAAKRMSEATGYEAKTIHRLLEIGYTSNEDELVFMRTEDNPIEADVVIIDEMSMVDIILMYHLLKAIVCGTRLILVGDVDQLPSVGPGNVLRDIIKSGMIKTVKLSEIFRQAGESMIVVNAHRINRGEHPILNEREKDFFFVTRNSQNDILKTVVDLCTRRIPDTYGYDPMKQIQVLSPMRKGTVGVANLNIELQKVLNPEDGKEGHHHHHH", "soluble on expression in E. coli": "soluble"}
{"sequence": "MSLRLRKDVLNYESRQKSDLLIPNSNSISIYNQIADKYSRKITREEIFSGIYFLRYFLLRNAKGDVLEVGSGPGTNFPFYKWKKINTLTLVEPAEKMREIADARAKKKVPPNVLYRQFADLRQLPPNQSYDTIIQTFCICSQEKAVEQLNNYRSLLRSDGRILLIEHGKGKYKFLNRILNAYAESHYESWGCVWNRDIEQLLEDSELTIDSCKRFNFGTTYVIEAHEGHHHHHH", "soluble on expression in E. coli": "not soluble"}
